For four molecules, Kd and EC50 results are on record in patent publication US20170355769A1 (AbbVie / Abbott, published 2017).

Experiment [1] deals with T1, Human B7-H3-ECD (His tag) (human, UniProt Q5ZPR3 29-461).
T1 construct: SPR analyte; also called huB7-H3; soluble ECD of human B7-H3
T1 sequence: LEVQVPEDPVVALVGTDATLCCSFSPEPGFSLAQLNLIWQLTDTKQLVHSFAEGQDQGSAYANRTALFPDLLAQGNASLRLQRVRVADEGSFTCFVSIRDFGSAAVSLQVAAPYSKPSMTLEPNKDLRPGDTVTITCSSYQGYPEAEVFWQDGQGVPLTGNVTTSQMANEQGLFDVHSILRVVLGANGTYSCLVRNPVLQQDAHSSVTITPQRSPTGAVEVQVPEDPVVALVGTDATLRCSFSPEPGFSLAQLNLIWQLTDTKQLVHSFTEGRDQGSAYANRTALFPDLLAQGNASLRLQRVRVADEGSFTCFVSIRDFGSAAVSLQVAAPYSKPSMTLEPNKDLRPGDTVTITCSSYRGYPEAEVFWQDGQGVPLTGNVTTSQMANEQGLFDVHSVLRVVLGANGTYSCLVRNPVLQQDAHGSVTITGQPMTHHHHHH
The experiment in a line: SPR Biacore, naked mAb. From the text:
Biacore T200 SPR instruments were used to measure the binding kinetics of human B7-H3 (analyte) binding to various mAbs (ligands). The assay format was Fc-based capture via immobilized anti-mouse (Fc) (Pierce 31170) or immobilized anti-human (Fc) (Pierce 31125). A standard amine coupling protocol was employed to immobilize the capture reagents via primary amines to the carboxy-methyl (CM) dextran surface of CM5 sensorchips (Biacore); capture antibodies were coupled to a level of approximately 5000RU. For binding kinetic measurements the assay buffer was HBS-EP+ (Biacore): 10 mM Hepes, pH7.4, 150 mM NaCl, 3 mM EDTA, 0.05% polysorbate 20. During the assay, all measurements were referenced against the capture surface alone. Each assay cycle consisted of the following steps: 1) Capture of ligand to approximately 50RU; 2) Analyte injection over both reference and test surface, 240 μL at 80 μL/min, after which the dissociation was monitored for 900 seconds at 80 μL/min; 3) Regeneration of capture surface with low pH glycine. […] Data were processed and fit to a 1:1 binding model using Biacore T200 Evaluation Software to determine the binding kinetic rate constants, kₐ (on-rate) and kd (off-rate), and the equilibrium dissociation constant (affinity, KD). […]
On the technique in general: SPR reads the build-up and loss of mass on a sensor chip optically.

Experiment [2] addresses T2, Human full length B7-H3 (human, UniProt Q5ZPR3 29-534).
T2 construct: On 3T12 fibroblasts expressing full length human B7-H3 or on NCI-H1650 cells; signal peptide residues 1-28 stated; also called huB7-H3; CD276
T2 sequence: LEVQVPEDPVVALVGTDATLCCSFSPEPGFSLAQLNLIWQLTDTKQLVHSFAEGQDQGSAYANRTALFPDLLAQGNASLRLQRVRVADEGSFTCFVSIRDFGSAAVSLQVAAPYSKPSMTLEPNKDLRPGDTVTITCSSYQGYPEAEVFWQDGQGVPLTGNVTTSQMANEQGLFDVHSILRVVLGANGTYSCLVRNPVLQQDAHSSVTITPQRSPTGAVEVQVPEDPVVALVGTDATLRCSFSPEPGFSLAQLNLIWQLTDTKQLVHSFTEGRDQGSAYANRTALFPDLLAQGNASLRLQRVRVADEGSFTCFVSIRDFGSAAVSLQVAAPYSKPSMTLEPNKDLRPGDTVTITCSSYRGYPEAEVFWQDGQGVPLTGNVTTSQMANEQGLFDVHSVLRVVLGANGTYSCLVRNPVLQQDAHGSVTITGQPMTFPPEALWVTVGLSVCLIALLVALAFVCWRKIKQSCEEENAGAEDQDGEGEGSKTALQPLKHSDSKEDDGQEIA
Put plainly: FACS, NCI-H1650 cells. Background: In flow cytometry, cells or beads pass a laser one at a time.

Experiment [3] deals with T2, Human full length B7-H3. The experiment in a line: FACS, cell surface human B7-H3 (as Example 6). The procedure:
(§1) Cells were harvested from flasks when approximately 80% confluent using Gibco® Cell Dissociation Buffer. Cells were washed once in PBS/1% FBS (FACS buffer) then resuspended at 2.5×10⁶ cells/mL in FACS buffer. 100 μL of cells/well were added to a round bottom 96-well plate. 10 μL of a 10× concentration of mAb/ADC (final concentrations are indicated the figures). Wells were washed twice with FACS buffer and resuspended in 50 μL of secondary Ab (AlexaFluor 488) diluted in FACS buffer. The plate was incubated at 4° C. for one hour and washed twice with FACS buffer. Cells were resuspended in 100 μL of PBS/1% formaldehyde and analyzed on a Becton Dickinson LSRII flow cytometer. Data was analyzed using WinList flow cytometry analysis software.
Nine anti-B7-H3 chimeric antibodies were conjugated to the Bcl-xL inhibiting (Bcl-xLi) synthon CZ (Example 2.1) using conjugation Method A described below. The resulting ADCs (anti-B7-H3 antibodies conjugated to synthon CZ) were tested for binding to cell surface human B7-H3 by FACS (as described in Example 6) and for cell cytotoxicity in cell lines expressing B7-H3. […] Table 6 provides cell surface binding and cytotoxicity activity of anti-B7-H3 chimera ADCs against breast cancer cell HCC38 expressing human B7-H3.

The target of experiment [4] is T3, hB7-H3 (ELISA antigen of Tables 17 and 20) (human, UniProt Q5ZPR3 29-466, limits assumed).
T3 sequence: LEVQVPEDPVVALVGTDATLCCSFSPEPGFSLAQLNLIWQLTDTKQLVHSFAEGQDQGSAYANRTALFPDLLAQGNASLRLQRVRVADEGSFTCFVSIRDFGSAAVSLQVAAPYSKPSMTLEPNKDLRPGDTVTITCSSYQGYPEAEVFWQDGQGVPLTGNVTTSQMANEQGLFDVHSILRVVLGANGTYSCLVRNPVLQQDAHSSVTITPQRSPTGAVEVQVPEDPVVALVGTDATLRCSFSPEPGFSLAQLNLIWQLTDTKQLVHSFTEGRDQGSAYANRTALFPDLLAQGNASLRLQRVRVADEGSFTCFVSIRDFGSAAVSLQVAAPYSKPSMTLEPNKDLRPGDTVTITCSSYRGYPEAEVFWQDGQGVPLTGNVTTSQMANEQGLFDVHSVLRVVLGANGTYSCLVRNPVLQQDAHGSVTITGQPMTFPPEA
The experiment in a line: ELISA. (An ELISA detects its analyte on a solid surface through an enzyme-linked reagent.)

The target in experiment [5] is T2, Human full length B7-H3. The experiment in a line: FACS (Example 6 method). The procedure:
as §1
(§2) Nine huAb13 variants described in Examples 17 and 18 were generated and tested for binding to B7-H3 by FACS (according to methods described in Example 6).

Experiment [6] concerns the target T4, Cynomolgous B7-H3 on cells (cynomolgus).
T4 construct: whole, on cells; also called cyB7-H3; cyno B7-H3
Put plainly: FACS (Example 6 method). The procedure: as §1, §2

Experiment [7] has as its target T1, Human B7-H3-ECD (His tag). Put plainly: SPR Biacore, naked mAb. An excerpt:
(§3) Biacore T200 SPR instruments were used to measure the binding kinetics of human B7-H3 (analyte) binding to various mAbs (ligands). The assay format was Fc-based capture via immobilized anti-mouse (Fc) (Pierce 31170) or immobilized anti-human (Fc) (Pierce 31125). A standard amine coupling protocol was employed to immobilize the capture reagents via primary amines to the carboxy-methyl (CM) dextran surface of CM5 sensorchips (Biacore); capture antibodies were coupled to a level of approximately 5000RU. For binding kinetic measurements the assay buffer was HBS-EP+ (Biacore): 10 mM Hepes, pH7.4, 150 mM NaCl, 3 mM EDTA, 0.05% polysorbate 20. During the assay, all measurements were referenced against the capture surface alone. Each assay cycle consisted of the following steps: 1) Capture of ligand to approximately 50RU; 2) Analyte injection over both reference and test surface, 240 μL at 80 μL/min, after which the dissociation was monitored for 900 seconds at 80 μL/min; 3) Regeneration of capture surface with low pH glycine. […] Data were processed and fit to a 1:1 binding model using Biacore T200 Evaluation Software to determine the binding kinetic rate constants, kₐ (on-rate) and kd (off-rate), and the equilibrium dissociation constant (affinity, KD).
This is another data set of the same source.

Experiment [8] concerns the target T1, Human B7-H3-ECD (His tag). Put plainly: SPR Biacore, naked mAb.
Excerpt: as §3
These variants were further characterized for binding by SPR and as ADCs conjugated to the Bcl-xL inhibitor synthon (linker warhead) CZ. […] An ADC comprising chAb3 conjugated to synthon CZ was used as a control.
This is another data set of the same source.

Read-outs that look alike come from different tables or passages of the source.

B1: chAb13 (antibody, IgG1, V domains shown)
VH: DVQLQESGPDLVKPSQSLSLTCTVTGYSITSGYSWHWIRQFPGNKLEWMGYIHSSGSTNYNPSLKSRISINRDTSKNQFFLQLNSVTTEDTATYYCAGYDDYFEYWGQGTTLTVSS
VL: DIVMTQSQKFMSTSVGDRVSVTCKASQNVGFNVAWYQQKPGQSPKALIYSASYRYSGVPDRFTGSGSGTDFTLTISNVQSEDLAEYFCQQYNSYPFTFGSGTKLEIK
notes: chimeric, huIgG1/k
A word on the Kd: it is the free concentration of one partner at which half of the binding sites on the other are occupied at equilibrium, for simple one-to-one binding. A low value points to a tighter complex. What is called EC50 is the midpoint of the concentration-response curve. The molecule B1 came in with a Kd in experiment [1] of 5.7 nM. In the experiment with Human full length B7-H3 [2], this molecule yielded a concentration giving a half-maximal response (EC50) of 1.53 nM.

B2: chAb13-CZ (antibody, IgG1, V domains shown)
VH: B1 VH
VL: B1 VL
modifications: synthon CZ on reduced interchain Cys
Turning to B2, the half-maximal effective concentration (EC50) came out at 1.49 nM with Human full length B7-H3 [3], 0.26 nM in experiment [4], 6.27 nM with Human full length B7-H3 [5] and 18.4 nM in experiment [6].

B3: huAb13v6-CZ (antibody, V domains shown)
VH: EVQLQESGPGLVKPSETLSLTCAVTGYSITSGYSWHWIRQFPGNGLEWMGYIHSSGSTNYNPSLKSRISISRDTSKNQFFLKLSSVTAADTAVYYCAGYDDYFEYWGQGTTVTVSS
VL: DIQMTQSPSSLSASVGDRVTITCKASQNVGFNVAWYQQKPGKAPKLLIYSASYRYSGVPSRFSGSGSGTDFTLTISSLQPEDFATYFCQQYNWYPFTFGQGTKLEIK
modifications: synthon CZ on reduced interchain Cys
notes: ADC, DAR 3.6
On to B3, for which the EC50 in experiment [4] came out at 0.14 nM; with Human full length B7-H3 [5] it was 5.83 nM; in experiment [6] it was 12.9 nM.

B4: huAb3v2 (antibody, V domains shown)
VH: EVQLVQSGAEVKKPGSSVKVSCKASGYTFSSYWMHWVRQAPGQGLEWIGLIHPDSGSTNYNEMFKNRATLTVDRSTSTAYMELSSLRSEDTAVYYCAGGGRLYFDYWGQGTTVTVSS
VL: DIVMTQSPLSLPVTPGEPASISCRSSQSLVHSNGDTYLRWYLQKPGQSPQLLIYKVSNRFSGVPDRFSGSGSGTDFTLKISRVEAEDVGVYYCSQSTHVPYTFGGGTKVEIK
notes: humanized IgG
For the molecule B4, the figures for the dissociation constant Kd in experiment [7] and in experiment [8] were 2.3 nM and 0.69 nM, respectively.
